Experimental findings from paper PMC4006750, “GOLPH3 Is Essential for Contractile Ring Formation and Rab11 Localization to the Cleavage Site during Cytokinesis in Drosophila melanogaster” (PLoS Genetics, 2014) are described below.

The target in the assay is T1, Drosophila GOLPH3, GST removed (ligand of the SPR experiment) (Drosophila melanogaster, UniProt Q9VQ93 1-294).
T1 construct: Drosophila melanogaster GOLPH3 (CG7085, sauron), polypeptide of 293 amino acids, full-length cDNA in pGEX-6p-2; A few vector residues probably remain at the N-terminus after PreScission cleavage; also called dGOLPH3; source: E. coli BL21-CodonPlus [DE3], purified as GST fusion, GST cleaved off with PreScission Protease; not shown: GST, N-terminal, cleaved
The experiment in a line: SPR; BIACORE X, GOLPH3 immobilised on CM5 chip by amine coupling (about 1200 RU); Rab11 analyte 50 nM to 10.0 µM in 10 mM Hepes pH 7.4, 150 mM NaCl, 0.005% surfactant P20, 30 µl/min. As to conditions: both partners purified. Background: Surface plasmon resonance follows binding to a sensor surface in real time, without labels.

Where “and” joins values, the source holds several entries; their conditions need not be identical. Equal values may be shown once.

T1 sequence (Q9VQ93 whole entry, the tested form may be a part): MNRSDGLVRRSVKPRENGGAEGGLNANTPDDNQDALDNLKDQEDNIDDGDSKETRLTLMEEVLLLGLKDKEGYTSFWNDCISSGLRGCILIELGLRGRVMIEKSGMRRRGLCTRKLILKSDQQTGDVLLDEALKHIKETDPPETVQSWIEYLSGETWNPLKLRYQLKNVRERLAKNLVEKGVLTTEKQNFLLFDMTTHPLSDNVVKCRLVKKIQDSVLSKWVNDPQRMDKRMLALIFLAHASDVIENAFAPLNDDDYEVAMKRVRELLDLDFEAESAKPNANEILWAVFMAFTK

B1: Drosophila Rab11, GST removed (analyte of the SPR experiment) (natural protein, UniProt O18335 1-214, looked up)
chain: MGAREDEYDYLFKVVLIGDSGVGKSNLLSRFTRNEFNLESKSTIGVEFATRSIEVDGKTIKAQIWDTAGQERYRAITSAYYRGAVGALLVYDIAKHLTYENVERWLRELRDHADQNIVIMLVGNKSDLRHLRSVPTDEAKLFAERNGLSFIETSALDSTNVETAFQNILTEIYRIVSQKQIRDPPEGDVIRPSNVEPIDVKPTVTADVRKQCCQ
notes: Drosophila Rab11, full-length, made as GST fusion; source: E. coli BL21-CodonPlus [DE3], purified as GST fusion, GST cleaved off with PreScission Protease
As usually defined, the Kd is a measure of binding affinity in units of concentration. A low value points to a tighter complex. Usually koff stands for a measure of how fast the partners let go of each other. A higher koff goes with fast dissociation. For B1, the Kd was determined as 180 nM; the dissociation rate constant (koff) was ~0.0002 s⁻¹ and ~0.0001 s⁻¹.
